Source: publication PMC4486471 (Nature communications, 2014)

Biological target: the molecule itself
Assay: crystal structure

B1: auto-phosphorylated minimal dual catalytic domain fragment of murine IRE1α encompassing residues 549 to 977 (domain or fragment, mouse, UniProt Q9EQY0 549-977, looked up)
chain: SPSLEQDDEDEETRMVIVGKISFCPKDVLGHGAEGTIVYKGMFDNRDVAVKRILPECFSFADREVQLLRESDEHPNVIRYFCTEKDRQFQYIAIELCAATLQEYVEQKDFAHLGLEPITLLHQTTSGLAHLHSLNIVHRDLKPHNILLSMPNAHGRIKAMISDFGLCKKLAVGRHSFSRRSGVPGTEGWIAPEMLSEDCKDNPTYTVDIFSAGCVFYYVISEGYHPFGKSLQRQANILLGACNLDCFHSDKHEDVIARELIEKMIAMDPQQRPSAKHVLKHPFFWSLEKQLQFFQDVSDRIEKEALDGPIVRQLERGGRAVVKMDWRENITVPLQTDLRKFRTYKGGSVRDLLRAMRNKKHHYRELPVEVQETLGSIPDDFVRYFTSRFPHLLSHTYQAMELCRHERLFQTYYWHEPTEPQPPVIPYAL
modifications: auto-phosphorylated (sites not given)
- binding result: binds
